Source: article PMC7589614

Legend:
[1] = biological target: AGR2 (UniProt O95994 21-175); assay: porous silicon RIFTS (EOT) biosensor; apparent, mass-transfer limited; Hill fit R2 0.9951; Selection buffers listed (assay buffer and temperature not stated in material): AGR2 137 mM NaCl, 20 mM KCl, 10 mM Na2HPO4, 2 mM KH2PO4 pH 7.4; 6H7 50 mM K2HPO4
[2] = biological target: T1, tyrosinase (Bacillus megaterium (printed …, UniProt B2ZB02 1-297)); assay: porous silicon RIFTS (EOT) biosensor; apparent, mass-transfer limited; Hill fit R2 0.9731; Selection buffers listed (assay buffer and temperature not stated in material): AGR2 137 mM NaCl, 20 mM KCl, 10 mM Na2HPO4, 2 mM KH2PO4 pH 7.4; 6H7 50 mM K2HPO4
T1 sequence: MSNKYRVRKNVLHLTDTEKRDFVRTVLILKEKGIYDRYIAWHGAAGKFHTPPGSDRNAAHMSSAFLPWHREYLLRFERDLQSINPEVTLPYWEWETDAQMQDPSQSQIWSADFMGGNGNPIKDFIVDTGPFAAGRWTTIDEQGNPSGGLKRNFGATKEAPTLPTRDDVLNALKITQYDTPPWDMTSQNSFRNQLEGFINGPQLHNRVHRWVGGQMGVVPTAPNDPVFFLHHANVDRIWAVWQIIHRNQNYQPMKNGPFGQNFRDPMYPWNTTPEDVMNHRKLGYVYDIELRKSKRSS

[3] = biological target: protein A (Staphylococcus aureus, UniProt P02976 37-485); assay: porous silicon RIFTS (EOT) biosensor; apparent, mass-transfer limited; Hill fit R2 0.9177; Selection buffers listed (assay buffer and temperature not stated in material): AGR2 137 mM NaCl, 20 mM KCl, 10 mM Na2HPO4, 2 mM KH2PO4 pH 7.4; 6H7 50 mM K2HPO4
Chain of protein A (P02976 37-485): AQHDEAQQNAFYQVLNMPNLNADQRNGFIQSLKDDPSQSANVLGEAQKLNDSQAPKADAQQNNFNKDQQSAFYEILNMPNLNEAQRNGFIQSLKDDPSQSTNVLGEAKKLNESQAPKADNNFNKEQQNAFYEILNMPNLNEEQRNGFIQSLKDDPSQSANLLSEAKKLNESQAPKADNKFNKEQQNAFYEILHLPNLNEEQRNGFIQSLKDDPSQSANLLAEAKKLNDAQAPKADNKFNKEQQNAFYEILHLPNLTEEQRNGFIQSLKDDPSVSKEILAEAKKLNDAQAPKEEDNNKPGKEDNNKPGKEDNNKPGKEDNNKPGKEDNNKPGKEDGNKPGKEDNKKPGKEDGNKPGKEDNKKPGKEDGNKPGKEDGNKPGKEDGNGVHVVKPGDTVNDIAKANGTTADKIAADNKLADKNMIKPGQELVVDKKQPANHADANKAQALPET

Chain of AGR2 (O95994 21-175): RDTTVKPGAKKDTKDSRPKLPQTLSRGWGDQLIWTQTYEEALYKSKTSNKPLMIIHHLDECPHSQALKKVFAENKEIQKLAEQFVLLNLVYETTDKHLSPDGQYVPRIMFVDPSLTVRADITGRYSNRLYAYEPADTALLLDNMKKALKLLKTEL

For TCTCGGACGCGTGTGGTCGGGTGGGAGTTGTGGGGGGGGGTGGGAGGGTT (ssDNA, 5'-amino) [anti-AGR2 aptamer], the Kd [1] was 21 ± 1 µM.

GCTATGGGTGGTCTGGTTGGGATTGGCCCCGGGAGCTGGC (ssDNA, 5'-amino) [anti-his tag aptamer 6H7] gave a Kd [2] of 31 ± 7 µM.

B1: anti-protein A aptamer PA#2/8[S1-58] (ssDNA)
DNA: ATACCAGCTTATTCAATTAGCAACATGAGGGGGATAGAGGGGGTGGGTTCTCTCGGCT
modifications: 3'-amino-C6
Work on B1 yielded a Kd [3] of 14 ± 1 µM.
